Publication PMC8100141

Assays:
[1] = biological target: DENV3 NS5 wild type (Dengue virus serotype 3) (UniProt Q5UB51); test: fluorescence titration; conditions: all adenosines are 1,N6-ethenoadenosine; Fluorescence: 50 mM Tris-HCl pH 7.5, 100 mM NaCl, 1 mM MgCl2, 1 mM DTT, 10% glycerol; EMSA: 20 mM Tris pH 7.4, 150 mM NaCl, 2 mM MgCl2, 5% glycerol, room …
[2] = biological target: DENV3 NS5 wild type (Dengue virus serotype 3) (UniProt Q5UB51); test: fluorescence competition; conditions: Fluorescence: 50 mM Tris-HCl pH 7.5, 100 mM NaCl, 1 mM MgCl2, 1 mM DTT, 10% glycerol; EMSA: 20 mM Tris pH 7.4, 150 mM NaCl, 2 mM MgCl2, 5% glycerol, room …

Chain of DENV3 NS5 wild type (Dengue virus serotype 3) (Q5UB51 2491-3390): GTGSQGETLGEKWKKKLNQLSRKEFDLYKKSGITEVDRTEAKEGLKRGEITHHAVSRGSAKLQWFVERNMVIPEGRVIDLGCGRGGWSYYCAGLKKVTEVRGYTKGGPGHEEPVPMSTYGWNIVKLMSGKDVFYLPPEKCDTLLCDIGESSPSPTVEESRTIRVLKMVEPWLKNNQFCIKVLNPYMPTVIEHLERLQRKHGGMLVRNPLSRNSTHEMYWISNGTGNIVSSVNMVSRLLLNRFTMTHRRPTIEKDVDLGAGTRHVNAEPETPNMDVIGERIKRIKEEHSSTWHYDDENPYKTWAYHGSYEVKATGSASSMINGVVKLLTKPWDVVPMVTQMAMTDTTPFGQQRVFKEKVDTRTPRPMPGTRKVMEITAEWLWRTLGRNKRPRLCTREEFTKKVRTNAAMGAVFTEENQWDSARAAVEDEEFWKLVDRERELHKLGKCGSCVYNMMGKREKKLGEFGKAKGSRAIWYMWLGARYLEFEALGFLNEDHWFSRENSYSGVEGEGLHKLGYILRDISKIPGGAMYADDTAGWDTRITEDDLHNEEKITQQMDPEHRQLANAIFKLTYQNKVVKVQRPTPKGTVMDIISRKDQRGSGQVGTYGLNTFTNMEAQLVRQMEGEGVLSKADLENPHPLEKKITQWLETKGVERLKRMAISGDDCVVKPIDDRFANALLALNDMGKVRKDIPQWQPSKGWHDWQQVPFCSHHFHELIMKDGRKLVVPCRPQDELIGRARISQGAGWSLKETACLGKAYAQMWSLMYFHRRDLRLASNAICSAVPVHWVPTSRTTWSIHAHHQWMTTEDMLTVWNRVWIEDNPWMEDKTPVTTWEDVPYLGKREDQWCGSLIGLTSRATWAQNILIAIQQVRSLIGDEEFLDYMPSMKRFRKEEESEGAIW

Substance AAAAAAAAAAAAAAAAAAAA [εA(pεA)19] has a Ka [1] of 2.1e+06 M⁻¹.
Work on tRNA-SLADENV yielded a Ka [2] of 4.8e+06 M⁻¹.
